Source: patent US20260167731A1 (DOMAIN THERAPEUTICS, published 2026)
Several values for one entry are separate records, joined by “and”; a condition that tells them apart may be missing. Identical values can stand only once.

B1: humanized anti-CCR8 mAb 2-12 (antibody, human IgG1, kappa)
heavy: not shown
light: DIVMTQAAPSLSVTPGESASISCTSSKSLLHSNGNTYLYWFLQKPGQSPQLLIYRMSNLASGVPDRFSGSGSGTAFTLKISRVEAEDVGVYYCMQHREYPFTFGSGTKLEIKRTVAAPSVFIFPPSDEQLKSGTASVVCLLNNFYPREAKVQWKVDNALQSGNSQESVTEQDSKDSTYSLSSTLTLSKADYEKHKVYACEVTHQGLSSPVTKSFNRGEC
notes: Humanized, human IgG1 / kappa, produced in CHO
B2: Ref #4 (137-H3L2 (LM-108) of WO 2022/078277) (antibody, human IgG1, V domains shown)
VH: EVQLVESGGGLVQPGGSLKLSCAASGFTFNTYAMNWVRQASGKGLEWVARIRSKANNYATYYADSVKDRFTISRDDSKNTLYLQMNNLKTEDTAVYYCVRDRSRGEDYAMDYWGQGTLVTVSS
VL: DIVMTQSPLSLPVTPGEPASISCRSSKSLLHSNANTYLYWFLQKPGQSPQLLIYRMSNLASGVPDRFSGSGSGTAFTLKISRVEAEDVGVYYCMQHLEYPFTFGQGTKLEIK
B3: humanized anti-CCR8 mAb 2-15 (antibody, human IgG1, kappa, V domains shown)
VH: QVQLQQSGPEVVKPGASVKVSCKTSGYTFTEYTIHWVRQSHGQSLEWVGGINPNNGNTRYDQKFKGRVTITIDKSSSTAYMELRSLTSEDTAVYYCARVARSSGSGPYAMDYWGQGTTVTVSS
VL: DVVMTQSPLSLPVTLGDQASISCRCSQSLLHTNGDTYLHWYLQRPGQSPRLLIYKVSNRFSGVPDRFSGSGSGTDFTLKISRVEAEDVGVYFCSQSTHVPYTFGGGTKVEIKR
notes: Humanized, human IgG1 / kappa
B4: Ref #3 (Anti-CCR8-1 of US 2021/0238292 A1) (antibody, human IgG1, V domains shown)
VH: QVQLVQSGAEVKKPGASVKVSCKASGYTFTSYYMHWVRQAPGQGLEWMGIINPSGGSTSYAQKFQGRVTMTRDTSTSTVYMELSSLRSEDTAVYYCARAVRNRFRFDYWGQGTLVTVSS
VL: QSALTQPASVSGSPGQSITISCTGTSSDVGSYNLVSWYQQHPGKAPKLMIYEVSKRPSGVSNRFSGSKSGNTASLTISGLQAEDEADYYCSSYAGSSTFVVFGGGTKLTVL
B5: Ref #1 (TPP-21360 of WO 2021/260210) (antibody, human IgG1, V domains shown)
VH: EVQLLESGGGLVQPGGSLRLSCAASGFTFSSYGMHWVRQAPGKGLEWVSAINWNGGSTGYADSVKGRFTISRDNSKNTLYLQMNSLRAEDTAVYYCARGHHSGYDGRFFDYWGQGTLVTVSS
VL: QSVLTQPPSVSGAPGQRVTISCTGSSSNIGAGYNVHWYQQLPGTAPKLLIYTNNRRPSGVPDRFSGSKSGTSASLAISGLRSEDEADYYCAAWDASLSGWVFGGGTKLTVL
notes: Benchmark; variable regions cloned into vectors encoding heavy and light chains of human IgG1, produced in CHO

Assays:
[1] = target: T1, pwt1, unmodified CCR8 related peptide (human, none (non-sulfated Y15, Y16, Y17)); experiment: ELISA on coated CCR8 peptide (500 ng/mL), OD [cont.]
T1 construct: First 34 amino acids of human CCR8, synthetic; also called unmodified peptide
T1 sequence (peptide, as listed by the source): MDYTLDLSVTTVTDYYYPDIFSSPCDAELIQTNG
Procedure: (§1) The specific binding properties of antibodies were evaluated by ELISA with coated CCR8 related peptides (500 ng/mL) in carbonate/bicarbonate buffer. Different peptides were used as described in Table 1 (see Example 1). Each anti-CCR8 mAb was tested at 1 μg/mL then diluted at 1/10. After an incubation at room temperature during 90 min, unbound mAbs were removed by washings. […] After washings, 3,3′,5,5′-tetramethylbenzidine (TMB) (Interchim, Montlugon, France) was added for 15 min. Then the optical density (OD) was determined by using a multiplate reader (Tecan, Lyon, France) and correlated with mAb reactivity on the panel of coated peptides.

[2] = target: pm4, modified CCR8 related peptide (human, sulfated tyrosines at Y15 and Y16); experiment: as above
pm4, modified CCR8 related peptide (human, sulfated tyrosines at Y15 and Y16), sequence (peptide, as listed by the source): as above
Procedure: as §1

[3] = target: pm1, modified CCR8 related peptide (human, sulfated tyrosine at Y15); experiment: as above
pm1, modified CCR8 related peptide (human, sulfated tyrosine at Y15), sequence (peptide, as listed by the source): as above
Procedure: as §1

[4] = target: pm2, modified CCR8 related peptide (human, sulfated tyrosine at Y16); experiment: as above
pm2, modified CCR8 related peptide (human, sulfated tyrosine at Y16), sequence (peptide, as listed by the source): as above
Procedure: as §1

[5] = target: pm5, modified CCR8 related peptide (human, sulfated tyrosines at Y15 and Y17); experiment: as above
pm5, modified CCR8 related peptide (human, sulfated tyrosines at Y15 and Y17), sequence (peptide, as listed by the source): as above
Procedure: as §1

[6] = target: pm6, modified CCR8 related peptide (human, sulfated tyrosines at Y16 and Y17); experiment: as above
pm6, modified CCR8 related peptide (human, sulfated tyrosines at Y16 and Y17), sequence (peptide, as listed by the source): as above
Procedure: as §1

[7] = target: pm8, modified CCR8 related peptide (human, sulfated tyrosines at Y15, Y16 and Y17); experiment: as above
pm8, modified CCR8 related peptide (human, sulfated tyrosines at Y15, Y16 and Y17), sequence (peptide, as listed by the source): as above
Procedure: as §1

[8] = target: pm3, modified CCR8 related peptide (human, sulfated tyrosine at Y17); experiment: as above
pm3, modified CCR8 related peptide (human, sulfated tyrosine at Y17), sequence (peptide, as listed by the source): as above
Procedure: as §1

[9] = target: T2, human CCR8 (human, UniProt P51685 1-355); experiment: cell-based or functional assay
[10] = target: T3, hCCR8 SNAP-tag (human, UniProt P51685 1-355, SNAP-tag labelled with Lumi4-Terbium); experiment: HTRF Tag-lite, inhibition of hCCL1-AF647 binding to SNAP-tag hCCR8 on HEK-293
T3 construct: also called human CCR8 engineered with a SNAP-tag at the N-terminus; not shown: SNAP-tag at the N-terminus
Procedure: The inhibition of CCL1 binding to hCCR8 was evaluated with the Tag-Lite® technology from Cisbio (Revvity). Human CCR8 is engineered with a SNAP-tag at the N-terminus of the GPCR. hCCR8 SNAP-tag is transiently transfected on HEK-293 cell line using FuGene® (Promega, Madison, WI, USA). 48 hours after transfection, cells are labeled with the substrate Lumi4-Terbium® (Cisbio, Codolet, France) which covalently reacts with the SNAP-tag, for 1 h at 37° C. […] The Kd is previously obtained in a saturation binding assay on the same cells. […] The plate is next incubated at 21° C. for 2 h. Detection of HTRF signal is performed on the multiplate reader EnVision (PerkinElmer, Waltham, MA, USA). The HTRF (665/620) ratio is calculated by EnVision software, the data exported are considered as the total binding. The specific binding is calculated then by subtracting the non-specific signal from the total binding. The Ki and IC₅₀are calculated using the “One site—Fit Ki” and “One site—FitlogIC50” from GraphPad Prism 9 (Graphpad Software, San Diego, CA, USA), respectively.

[11] = target: T2, human CCR8; experiment: cell-based or functional assay; remark: listed apart in the source
[12] = target: T2, human CCR8; experiment: flow cytometry, HUT78 cells (endogenous CCR8)
Procedure: (§2) The same staining protocol was applied on human CCR8 transfected CHO cell line versus wild type CHO cell line, cutaneous T cell lymphoma HUT78 cell line and human activated T cell model.
(§3) Briefly, 1·10⁵ cells per well in a 96 well plate were incubated with a dilution of unconjugated anti-CCR8 mAb at 10 μg/mL then diluted at 1/3.33, 4 dilution points (during 30 min at 4° C.). In human activated T cells model, prior to mAb incubation, cells were first incubated with 200 nM of hCCL1 (R&D Systems, Minneapolis, MN, USA) or buffer PBS (Invitrogen by Thermofisher Scientific, Illkirch-Graffenstaden, France) supplemented by 2% Fetal Bovine Serum (Invitrogen by Thermofisher Scientific, Illkirch-Graffenstaden, France) and 2 mM EDTA (Invitrogen by Thermofisher Scientific, Illkirch-Graffenstaden, France) during 1 hour at 4° C. To determine EC50 value, 8 concentrations of anti-CCR8 mAb were tested. Unbound antibodies were washed away with PBS (Invitrogen by Thermofisher Scientific, Illkirch-Graffenstaden, France) supplemented by 2% Fetal Bovine Serum (Invitrogen by Thermofisher Scientific, Illkirch-Graffenstaden, France) and 2 mM EDTA (Invitrogen by Thermofisher Scientific, Illkirch-Graffenstaden, France). Subsequently, cells are centrifuged (5 min at 400 g) and bound antibody is detected with F(ab′)₂-Goat anti-Mouse IgG (H+L) Cross-Adsorbed Secondary Antibody, Alexa Fluor 488 (dilution 1/500) (Invitrogen by Thermofisher Scientific, Illkirch-Graffenstaden, France) or with F(ab′)₂-Goat anti-Human IgG Fc Secondary Antibody, PE (Invitrogen by Thermofisher Scientific, Illkirch-Graffenstaden, France) (dilution 1/1000) at 4° C. for 30 min. Detection reagent is washed away and cells are centrifuged (5 min at 400 g) and resuspended in 30 μL PBS. Bound detection antibody is quantified on a MacsQuant16 (Miltenyi, Gladbach, Germany) (B1 or B2 channel, 5000 events per acquisition). During the experiment, the respective isotype mAb controls (mouse IgG1, mouse IgG2a, mouse IgG2b, mouse IgG3 or human IgG1) (Biolegend, Amsterdam, The Netherlands) are included to exclude any unspecific binding events.
EC50 values were determined via nonlinear fit “log(agonist)vs.response−Variable slope (four parameters)” function of Graphpad prism. EC50 values were not constantly determined in the same experiments.

[13] = target: T3, hCCR8 SNAP-tag; experiment: cell-based or functional assay
[14] = target: T2, human CCR8; experiment: flow cytometry, hCCR8 transfected CHOK1 cells
Procedure: as §2, §3

[15] = target: T2, human CCR8; experiment: flow cytometry, inhibition of hCCL1-AF647 binding to hCCR8 CHO cells
Procedure: The hCCR8 transfected CHO cell line was dispatched at a density of 1·10⁵ per well in a 96-well plate. Cells were incubated for 30 min at 4° C. with or without anti-CCR8 mAb tested at 10 μg/mL then diluted at 1/3. Unbound antibodies were washed away with PBS (Gibco, Villebon-sur-Yvette, France) supplemented by 2% Fetal Bovine Serum (Invitrogen by Thermofisher Scientific, Illkirch-Graffenstaden, France) and 2 mM EDTA. […] After washing unbound ligands, CCL1 bound detection is quantified on a MacsQuant16 (Miltenyi, Gladbach, Germany) (R1 channel, 5 000 events per acquisition).
For IC₅₀ determination, a concentration response curve is performed using 8 concentrations of mAb. Curves are fitted and IC₅₀ of CCL1 binding blocking activity is calculated using the sigmoidal dose-response (variable slope) model on GraphPad Prism 9 (GraphPad Software, San Diego, CA, USA).

Binder	binding result [1]	binding result [2]	binding result [3]	binding result [4]	binding result [5]	binding result [6]	binding result [7]	binding result [8]	IC50, CCL1 induced hCCR8 Gi2 signaling (BRET, HEK-293) [9]	IC50 [10] [µg/mL]	Ki [10] [µg/mL]	hCCL1 (100 nM) residual response in %, Protocol #2, mAb 0.08 µg/mL ([…] nM) [11] [%]	hCCL1 (100 nM) residual response in %, Protocol #2, mAb 0.4 µg/mL (2.67 nM) [11] [%]	hCCL1 (100 nM) residual response in %, Protocol #2, mAb 10 µg/mL (66.7 nM) [11] [%]	hCCL1 (100 nM) residual response in %, Protocol #3, mAb 0.05 µg/mL (0.33 nM) [11] [%]	hCCL1 (100 nM) residual response in %, Protocol #3, mAb 0.5 µg/mL (3.33 nM) [11] [%]	hCCL1 (100 nM) residual response in %, Protocol #3, mAb 5 µg/mL (33.3 nM) [11] [%]	% of labelled cells [12] [%]	% of internalization at 1 µg/ml (CCL1 at 300 nM = 100%), HTRF [13] [%]	% of internalization at 10 µg/ml (CCL1 at 300 nM = 100%), HTRF [13] [%]	also measured
B1	binds	binds	binds	binds	binds	binds	binds	binds	0.029 µg/mL and 0.194 nM	0.09	0.05	62	38	30	94	63	39	23			
B2																			95	103	
B3	binds	binds	binds	binds	binds	binds	binds	binds	0.034 µg/mL and 0.227 nM	0.04	0.02	77	66	41	73	52	37	88	44	36	EC50 [12]: 0.2 nM
B4																			100	90	
B5									0.101 µg/mL and 0.675 nM	0.45	0.23								126	111	% positive cells [14]: 75.1%; IC50 [15]: 0.65 µg/mL
